Test results published in the supplement of paper PMC6755084.

B1: F1*; the commonest letter at each place (parent)
chain: GAGACCGCAACTGAAAAGTTGTTATCACTTGTCGTAAGACACTTTGGATGGGTTGAAGTTCTGCACGTAGAAGCAAAAGGC

Variants of: B1
Assay: fraction ligated after 30 min (ligated reads / total reads); higher = more ligase activity
Conditions: with F1*sub RNA substrate (template-directed ligation), 42 °C
Protocol: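 Chip-synthesised pool of F1* ligase ribozyme variants (all single and double substitutions, single, double and triple deletions in the catalytic core and GAA bulge, plus designed variants) was transcribed with T7 and reacted as a pool with excess substrate F1*sub for 30 min at 42 C in 50 mM EPPS pH 8.5, 25 mM MgCl2. Ligated and unligated bands were separated by PAGE, barcoded by RT and deep sequenced; fraction ligated = ligated reads / total reads per variant, relative activity = FL / FL of wild type (0.826). Sequences are the DNA template of the ribozyme.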

Variant	fraction ligated
A24C C40G	0.348
A24C C40T	0.707
A24C C40A	0.165
A24T C33G	0.336
A24T C33T	0.742
A24T C33A	0.214
A24T G38C	0.685
A24T G38T	0.745
A24T G38A	0.205
T25C A27C	0.744
T25C A27T	0.774
T25C A27G	0.796
A24G A27C	0.776
A24G A27T	0.126
A24G A27G	0.701
T25A C42T	0.785
T25A C42G	0.553
T25A C42A	0.653
A24T A41G	0.72
A24T A41T	0.785
A24T A41C	0.184
A24C T43A	0.625
A24C T43G	0.792
A24C T43C	0.231

Variant	fraction ligated
A24G T35C	0.776
A24G T35G	0.774
A24G T35A	0.786
A24G G31C	0.181
A24G G31A	0.202
A24G G31T	0.331
A24T G47C	0.0331
A24T G47T	0.108
A24T G47A	0.797
T25C A37C	0.766
T25C A37G	0.812
T25C A37T	0.784
A24T T35C	0.788
A24T T35A	0.808
A24T T35G	0.772
A24G A48T	0.0442
A24G A48C	0.729
A24G A48G	0.762
A24C G38C	0.274
A24C G38T	0.468
A24C G38A	0.508
A24G C28G	0.701
A24G C28A	0.719
A24G C28T	0.743

Variant	fraction ligated
A24G C40T	0.84
A24G C40A	0.731
A24G C40G	0.802
A24G A39T	0.664
A24G A39C	0.504
A24G A39G	0.827
A24C T30G	0.57
A24C T30A	0.414
A24C T30C	0.168
T25C	0.759
T25A	0.749
A24C T35A	0.782
A24C T35C	0.764
A24C T35G	0.759
A24C T32G	0.144
A24C T32C	0.062
A24C T32A	0.0611
T25A T43G	0.624
T25A T43C	0.286
T25A T43A	0.463
T25A A56T	0.0445
T25A A56C	0.0125
T25A A56G	0.0269
T25A A48G	0.459

Variant	fraction ligated
T25A A48C	0.752
T25A A48T	0.822
A24G G38A	0.752
A24G G38C	0.695
A24G G38T	0.745
T25A A57G	0.345
T25A A57C	0.199
T25A A57T	0.252
A24C T45C	0.0358
A24C T45A	0.152
A24C T45G	0.0118
A24G G34C	0.73
A24G G34A	0.763
A24G G34T	0.729
A24T A56C	0.0299
A24T A56G	0.0306
A24T A56T	0.0614
A24T T25C	0.779
A24T T25A	0.735
A24T T25G	0.722
A24G G46A	0.803
A24G G46T	0.621
A24G G46C	0.765
A24T G55C	0.107

Variant	fraction ligated
A24T G55T	0.18
A24T G55A	0.532
A24T T30C	0.297
A24T T30A	0.67
A24T T30G	0.768
A24T A27G	0.748
A24T A27T	0.712
A24T A27C	0.737
A24G C26A	0.711
A24G C26G	0.268
A24G C26T	0.728
A24T G34T	0.76
A24T G34A	0.789
A24T G34C	0.557
A24T C28T	0.794
A24T C28A	0.492
A24T C28G	0.373
A24G A37G	0.852
A24G A37T	0.764
A24G A37C	0.796
A24C T44G	0.292
A24C T44A	0.759
A24C T44C	0.563
T25A G34A	0.724

Variant	fraction ligated
T25A G34C	0.521
T25A G34T	0.718
A24G A57G	0.762
A24G A57C	0.632
A24G A57T	0.728
A24C G46A	0.335
A24C G46T	0.0441
A24C G46C	0.043
A24G A36G	0.813
A24G A36C	0.833
A24G A36T	0.789
T25A T45A	0.0271
T25A T45C	0.0183
T25A T45G	0.029
A24C G55A	0.649
A24C G55C	0.158
A24C G55T	0.0793
T25A G50T	0.536
T25A G50A	0.225
T25A G50C	0.267
A24T A48T	0.00859
A24T A48G	0.214
A24T A48C	0.499
A24T T49A	0.8

Variant	fraction ligated
A24T T49C	0.694
A24T T49G	0.783
T25A T29A	0.582
T25A T29G	0.691
T25A T29C	0.187
T25A T49G	0.772
T25A T49A	0.721
T25A T49C	0.612
T25A A27G	0.372
T25A A27C	0.266
T25A A27T	0.371
T25A C33G	0.229
T25A C33A	0.189
T25A C33T	0.472
A24G G50C	0.257
A24G G50A	0.449
A24G G50T	0.491
A24G A41G	0.691
A24G A41T	0.701
A24G A41C	0.034
A24G T29A	0.807
A24G T29G	0.811
A24G T29C	0.741
T25A T30G	0.461

Variant	fraction ligated
T25A T30A	0.32
T25A T30C	0.218
A24T T44G	0.196
A24T T44A	0.772
A24T T44C	0.778
A24C T29C	0.28
A24C T29G	0.766
A24C T29A	0.747
T25A T32G	0.13
T25A T32C	0.145
T25A T32A	0.094
T25A C26T	0.129
T25A C26G	0.0644
T25A C26A	0.0968
T25A G55C	0.0483
T25A G55T	0.0485
T25A G55A	0.263
A24C G50C	0.532
A24C G50T	0.646
A24C G50A	0.431
T25C A36C	0.771
T25C A36T	0.793
T25C A36G	0.816
A24C C33A	0.147

Variant	fraction ligated
A24C C33G	0.4
A24C C33T	0.697
A24G G55A	0.685
A24G G55T	0.629
A24G G55C	0.18
T25A A37C	0.744
T25A A37G	0.772
T25A A37T	0.776
A24C G31T	0.0308
A24C G31C	0.038
A24C G31A	0.0336
A24T A37T	0.786
A24T A37C	0.77
A24T A37G	0.792
T25A G47C	0.0196
T25A G47T	0.253
T25A G47A	0.462
A24G C42G	0.795
A24G C42T	0.802
A24G C42A	0.796
T25A C28A	0.396
T25A C28G	0.431
T25A C28T	0.714
T25A C40G	0.256

Variant	fraction ligated
T25A C40A	0.134
T25A C40T	0.647
T25A A41T	0.587
T25A A41C	0.0344
T25A A41G	0.419
A24C T25G	0.787
A24C T25C	0.793
A24C T25A	0.793
A24G T49A	0.742
A24G T49G	0.731
A24G T49C	0.731
A24G T45A	0.22
A24G T45G	0.0477
A24G T45C	0.0441
A24G T25G	0.368
A24G T25C	0.765
A24G T25A	0.697
T25A G31C	0.034
T25A G31A	0.0494
T25A G31T	0.0308
A24C C42G	0.775
A24C C42A	0.779
A24C C42T	0.779
A24G T44G	0.791

Variant	fraction ligated
A24G T44A	0.817
A24G T44C	0.763
A24T G31T	0.0661
A24T G31C	0.0424
A24T G31A	0.0391
A24C C28T	0.786
A24C C28G	0.742
A24C C28A	0.727
A24C G34T	0.648
A24C G34C	0.185
A24C G34A	0.727
A24T	0.778
A24G	0.777
A24T C26G	0.201
A24T C26A	0.217
A24T C26T	0.124
T25C A39G	0.786
T25C A39T	0.766
T25C A39C	0.741
T25A A36T	0.752
T25A A36G	0.766
T25A A36C	0.684
A24T C42G	0.769
A24T C42T	0.792

Variant	fraction ligated
A24T C42A	0.743
T25A G38A	0.353
T25A G38T	0.375
T25A G38C	0.0835
A24G T30A	0.745
A24G T30C	0.693
A24G T30G	0.79
A24T G46T	0.2
A24T G46A	0.553
A24T G46C	0.313
A24T T45A	0.0698
A24T T45C	0.0212
A24T T45G	0.0472
A24T A39C	0.636
A24T A39G	0.793
A24T A39T	0.619
A24T T29G	0.716
A24T T29A	0.789
A24T T29C	0.6
A24G C33G	0.785
A24G C33T	0.832
A24G C33A	0.746
A24T A36C	0.805
A24T A36G	0.519

Variant	fraction ligated
A24T A36T	0.794
A24T A57G	0.729
A24T A57T	0.503
A24T A57C	0.386
A24T C40A	0.34
A24T C40T	0.769
A24T C40G	0.582
A24C T49C	0.731
A24C T49G	0.806
A24C T49A	0.805
A24G T32C	0.369
A24G T32A	0.591
A24G T32G	0.589
A24C G47A	0.806
A24C G47T	0.0249
A24C G47C	0.00476
A24T T43A	0.678
A24T T43G	0.708
A24T T43C	0.621
A24G A56T	0.0729
A24G A56G	0.0845
A24G A56C	0.0669
A24G T43A	0.765
A24G T43C	0.694

Variant	fraction ligated
A24G T43G	0.694
A24T T32G	0.372
A24T T32A	0.153
A24T T32C	0.243
T25A T35C	0.761
T25A T35G	0.764
T25A T35A	0.751
T25A A39T	0.255
T25A A39G	0.751
T25A A39C	0.223
T25A T44A	0.762
T25A T44G	0.117
T25A T44C	0.605
A24T G50A	0.265
A24T G50C	0.295
A24T G50T	0.535
A24G G47C	0.0125
A24G G47A	0.684
A24G G47T	0.0352
T25A G46A	0.279
T25A G46T	0.0811
T25A G46C	0.137
